Assay: soluble on expression in E. coli; label from the status in PepcDB or PDB records

| Sequence | soluble on expression in E. coli |
| --- | --- |
| MMGEPARLRRLTAEEYLREEATSPVKRELVEGVPYAMAGAGRAHNLIVTNLVLLLGPLARRKGCRLYVADMKLKVGEATFYYPDLMAVCAPPPESPLYEEAPCLVVEVLSPATEGVDRREKLWRYLSLPSLEGYLLVSARERRVELYRKEGDILHQVAEEGEVPLPCLEGSLPVAEVYAGVELEGQEA | soluble |
| MEFVPEQHPPITETTTGAASNGCPVVGHMKYPVEGGGNQDWWPNRLNLKVLHQNPAVADPMGAAFDYAAEVATIDVDALTRDIEEVMTTSQPWWPADYGHYGPLFIRMAWHAAGTYRIHDGRGGAGGGMQRFAPLNSWPDNASLDKARRLLWPVKKKYGKKLSWADLIVFAGNCALESMGFKTFGFGFGRVDQWEPDEVYWGKEATWLGDERYSGKRDLENPLAAVQMGLIYVNPEGPNGNPDPMAAAVDIRETFRRMAMNDVETAALIVGGHTFGKTHGAGPADLVGPEPEAAPLEQMGLGWKSSYGTGTGKDAITSGIEVVWTNTPTKWDNSFLEILYGYEWELTKSPAGAWQYTAKDGAGAGTIPDPFGGPGRSPTMLATDLSLRVDPIYERITRRWLEHPEELADEFAKAWYKLIHRDMGPVARYLGPLVPKQTLLWQDPVPAVSHDLVGEAEIASLKSQIRASGLTVSQLVSTAWAAASSFRGSDKRGGANGGRIRLQPQVGWEVNDPDGDLRKVIRTLEEIQESFNSAAPGNIKVSFADLVVLGGCAAIEKAAKAAGHNITVPFTPGRTDASQEQTDVESFAVLEPKADGFRNYLGKGNPLPAEYMLLDKANLLTLSAPEMTVLVGGLRVLGANYKRLPLGVFTEASESLTNDFFVNLLDMGITWEPSPADDGTYQGKDGSGKVKWTGSRVDLVFGSNSELRALVEVYGADDAQPKFVQDFVAAWDKVMNLDRFDVR | soluble |
| MHHHHHHSSGVDLGTENLYFQSMKICSIALVGKYTKLRDCYASVFKALEHSALAINHKLNLMYIDSIDLEKITETEDPVKFHEAWQKLCKADGILVPGGFGIRGTLGKLQAISWARTKKIPFLGVCLGMQLAVIEFARNCLNLKDADSTEFRPNAPVPLVIDMPEHNPGNLGGTMRLGIRRTVFKTENSILRKLYGDVPFIEERHRHRFEVNPNLIKQFEQNDLSFVGQDVDGDRMEIIELANHPYFVGVQFHPEFSSRPMKPSPPYLGLLLAATGNLNAYLQQGCKLS | soluble |
| MRNLLQKCFKWQWLVCLAVGCCFSSCKDDEESTSGYDPNKPIVLTDFYPPEGKLATQVILNGSNFGDSKENVKVFFNDKEASVISVKDDRMLVLAPKRASTIEDPECVVKVQVHEQIEEYKQTFDYYIQTTVTTLVGGSTSAQVNPTGTIPLSEAQFRANIDRCICVDQDKNVFFLVDNDGKFAAFMLNEEADKLISLKSDINALFNSPVLGYNSKDDIVYQFWANRDSHEVYYFDPKTDYAPTTAISSISWDDPNFPNIEGFGVWAAKCNFTMGPDGKMYSRMLGGNLVRIDVENARGENLTNGDLVGTKDGSAYGLVFDPQDENVFYFSNNDKHCIYKYDLRTKECACWAGQEGKSGYLDGPIGQAMFNKPGQMCVDSEGNIILTDTENHCIRKITMSTGYVSTLAGKPQNSGYVNGSAEDAQFKKPLGICIDNDDVMYIGDSENRAIRRLAVELEHHHHHH | soluble |
| RGRLKVFLGAAPGVGKTYAMLQAAHAQLRQGVRVMAGVVETHGRAETEALLNGLPQQPLLRTEYRGMTLEEMDLDALLKAAPSLVLVDELAHTNAPGSRHTKRWQDIQELLAAGIDVYTTVNVQHLESLNDQVRGITGVQVRETLPDWVLQEAFDLVLIDLPPRELLERLRDGKVYVPEQARAAIDAFFTQTNLTALREMAMQTAAAQVDNDLAQGYRQLGQSAP | soluble |
| NSKKETVTVGVLQFVSHPALDEIYKGVEEGLKENGYDKGKNLEIIFQNGQADQSKLAIMSQQLVQKKADVLIGIATPAAQALANTTQEIPIILGAITDPVSAGLVKDNQKPGGNITGVSDQSPLSAQMDLLKELIPAAKKIGILYASSEENSRYQVAEAQKAAEAKGLTVKTYAVPSSNEIAQTVQVMTKETDVIYIPTDNTIANAMQTVVGEANRTKTPIIPSVDTMVEQGGLATVGINQHALGVQAGKMAAEVLSGKSQPATTPIYTFNTGDTIINEKQAQKLGITIPAELAKKSKLIN | not soluble |
| SNAAQQVQQPVAQQQVQQPAQQNTNTANAGGNQNQAAPVQNQPVAQPTDIDGTYTGQDDGDRITLVVTGTTGTWTELESDGDQKVKQVTFDSANQRMIIGDDVKIYTVNGNQIVVDDMDRDPSDQIVLTK | soluble |
| QTSIPTIFVGGDYARAFSTDGFVHRLTAAHLMTKGLVVHVSHAGHVTVQQFGPLKNNPTIQVIFADNHHAKRQARQFATVMQGLAKRYHVTRYNAVGHSSGGNIIFDYLTAQVPQRAQINKFVTIGSTYPGLTTQQLNRLPRSLPILNIAGHVWHTSGDGGVNLQAVLKFSHQLLAAGWSPKTQIIHGSPLTASHSMLHINPQVDLLIIQFLYGN | not soluble |
| MGLGRQSLNIMTFSGQELTAIIKMAKSMVMADGKIKPAEIAVMTREFMRFGILQDQVDLLLKASDSIEASQAVALIARMDEERKKYVASYLGVIMASDGDIDDNELALWTLISTLCGLPTMTVMEAINNMKNL | soluble |
| MGSDKIHHHHHHMLSLKSEVLARHLPLFNGKSILLFGNVRDRFADQIRSISSHVAIFSHYFDYARHYNDVEFGLDCTTPANLGVFYWTKNKQECHYQLLQWLSQTAIGQQMLIIGENRAGVRSVEKLLSPFGQIAKIDSARRCGLYHFELQTIPQFDCQKFWKSYRLADLTVLSLPAAFSSTELDAGSQLLLSSFTNQDRLTGNVLDLGCGAGVIGAYLKQRFPAISLTMSDIHSMAIHSAQATLAKNKLTGTVIASDVFSHINDRFDLIVSNPPFHDDIDTAYHTVESLIMQAKNHLNYGGELRIVANAFLPYPDLLDKAFGSHQVVTKSNKFKVYSARV | not soluble |
| MVVKFTKSEALHKEALEHIVGGVNSPSRSFKAVGGGAPIAMERGKGAYFWDVDGNKYIDYLAAYGPIITGHAHPHITKAITTAAENGVLYGTPTALEVKFAKMLKEAMPALDKVRFVNSGTEAVMTTIRVARAYTGRTKIMKFAGCYHGHSDLVLVAAGSGPSTLGTPDSAGVPQSIAQEVITVPFNNVETLKEALDKWGHEVAAILVEPIVGNFGIVEPKPGFLEKVNELVHEAGALVIYDEVITAFRFMYGGAQDLLGVTPDLTALGKVIGGGLPIGAYGGKKEIMEQVAPLGPAYQAGTMAGNPASMASGIACLEVLQQEGLYEKLDELGAMLEKGILEQAAKHNIDITLNRLKGALTVYFTTNTIEDYDAAQDTDGEMFGKFFKLMLQEGVNLAPSKYEAWFLTTEHTKEDIEYTIEAVGRAFAALADNK | not soluble |
| MNNTDYMIHLLARTIKTGKDELITPLIIQLSDMQVSRDLLEKHNLPALVAEYAPFNEAAKSLSKSVLAWKYEEIAQEMPQLLKEFVQIAKEKRVPEEFMVRLVTSLMDFDDLDTVRSCLEILNHFEFSLDEYEELGIYRKATQFEGQFRDADEIIAKVDVLLLQDEILEEDEAEVEADDLIGHAEENEEEENDFSDDESVISETESGIYTDEELELEDHFEAVRKEDRKDQVMTEICMMLLAGYIRSGNSEVISAAIKFTWAFDYSLEMYQKYDIQNLIYNFGVHNDDAELLMNHIKELQARELFNENRKFFKRFLRTCMEEKTITDSVLSYLKGFLENGDDYMVSCTLKFLLGMPITLSQFKTSHVEACLENLESGPSAQLGFMLKMKIQKLEHSEKS | not soluble |
| AHHHHHHGSIDDLVERMRKGDRRAVARLITLVENDEKKAREIIKRIYPLTGNAYIVGITGPPGSGKSTLVDKLVKEARKEGLIVGVIAVDPTSPFTGGALLGDRIRMQDHATDPGVFIRSMATRGSLGGLAKATNDAIKILDAYGCDIIFVETVGVGQVEVDIVKTADTVVLVTVPGLGDDIQAIKAGLMEIADIFVLNKADREGADATYFELSLTLDLESEKWEKLGWRPPIVETVATLGKGIKELWEQIKRHREFLEKSGKLEEKKRLRVEEEIKTIVSDMIAKKVEVSIKAGNLEDILEKVMKKELDPYSAASLIMEKIIGGGKSV | soluble |
| MAGQIETRQFRTLFISDVHLGSKAAKTDFLLDFLKYHEAETIIMVGDIVDGWRLRRSWYWPQGCNDVVQKLLRKARKGTRIVYIPGNHDEFLREFPGMHFGGIEVAERMIHEAADGKKYLVIHGDEFDVVVRNARLLAYLGDWAYDAAIAINIAIAAVRRRIGLPYWSFSAWAKLQVKHAVNFIGEFQRVVADEARRNNVDGVICGHIHHAIMEDMDGIRYINTGDWVESCTAIAENADGSFELITWMQTSEATAEHASDEMEPVNIPGLIGKHAA | not soluble |
| MSLSNYSTGELAKLCNVTTRTIQYYDRKGILKPQGFTEGKRRVYTEQQRQTLELILLLKDLGCALSDIDMLLKGEGTLKTLNTLLTMKQQEINQQVKQQQAVLNKIKNVQYYVNEASTSPITHLKDIEHVMSKSAEGHHHHHH | soluble |
| MGTSGCTVDTSRRDKVRMALPHAELEQARMDNLTRHVAQNFLREPQVVGEPNDSGVAVSQLLFEKSDTVVISDREIHHQLRAASIAVVAHAPMLLMDDTDRDAVQAEIGRLGARYILAIGDVGLPKTTGNVKVIPDSGSLTALGKLTSLQFRTQRIDVSNALSAVSRLDGTHPMWLLTNRQEKVQSSPSDGEVSAFPVQSRRDAGAAPQVIATQESGIAAVATARSYGASVTVMRFPDPRLNVESMRAVAGLSDQPLIALGSQFGTSQQLSERIELGERAPLALPHKTGLVFALRTLRARYLNDSDVSEHVDIPYGANYVRTIAHPLSSQDQQDWKAWADAINAQDGFVFIEIDAVHRDADEILDSVEEIVSQPSIGVILRNAAQVCARSPQSRQRIADRLMHWNSEVINHNGDQLGVVLEGVDILRGGVCGISPQELMGLGLAILPARGEHLGGDATVNSQLYWDDWFVAERESFQPTGTLRSPRLGLIIRD | not soluble |
| MAHHHHHHMDYCEEAYNKLIEFLSENKTEKMMESSLSSALAVALCYNHRIVNMYENMKGRIFLLDISNETYVYTNQYTQLMNIAYNAKRNNIIIDVFSLNCKIQLLEQICNITNGLYIDSSIFFNVNCTDNIEDVLTQTMIFWFLPSNNTRKYFSNTYLNDDTNIAVCSCHNKQVDIAYICSCCLAIYCSEKDEKTNKERTSCFVCKTRFTKALLRNKVVSDLDFSSI | not soluble |
| MAITRESKNGEEFVGEVTFYEGVNMNVVVNFFTGLDHYEYAKLRFAHTAHTPPLIRASSTSASASASTSTSSSRPKKHYLEKNMEHLLKKLDILAFKQTIIESRSPTSDSIHHQDFVSNTDTAEYDDDDTKFF | not soluble |
| MGHHHHHHSHVSRHYCPTCCYPMNACLCSHLQQIKPQTQLLVLQHPSEVEHKKNSVRVLSLVIPDTQVYVGESEADFAALRAQLSRCQRPIYLVYPSEQSASVESQSICVDCVLLLIDGTWRKAFKILQLNPWLAQFPAVHLAQGYASRYKIRKSSRSDSLSTLEASAYMLKALDDGLDVSPLLAAFDAMVAMRLQAMPAEVRLRYD | not soluble |
| MEHIEIRVSATGSMSSFHALCSFHQWPINVACSCWLSHCYRIYSLYPPQLVSCSDRLSTSGNTNAGAEFVTE | soluble |
| RDDSTLVIGHNTGALAHRINDPQHAGSIVTAIKQETDLDVTIECVVGTDPKAAGFSEPENKKVWNPEPKPEPKPEPKPEPKPEPEPAPASDNVWGAPAPLGGGQPATPPPPPVERFSPAKATAPQPPAAPQPVQEAPKPRWQQAAERGMRKMEERAKRPSFSDGVPLPPEPEEPDVPPDLYGYPADEGIPEPQTPQATSNYVVDHDEEEEMVREAAQGVGNRDHRDAMTVAVDILSEELGARQL | not soluble |
| MSEKDQSVNNTEEDFNVETEDNQNDTNIENSVSNTDNSEANASDSENNSEESIKDEESESQDTKIKELEKLANDNEEKYLRLYAEFENYKRRIQKENQINATYKAQGVLTDILPSIDNIERALQIEGDDESFKSLQKGVQMVHESLLRALKDNGLEEILAEGKEFDPNLHQAVVQDDNPDFKSGEVTQELQKGYKLKDRVLRPSMVKVNQ | soluble |

— the DeepSol protein solubility set
